Substitutions are numbered along the chain they refer to.
B1: CTLA-4 variant Var 3 (SEQ ID 7), monomeric form with serine at position 121, translated in vitro (receptor)
chain: AMHVAQPAVVLASSRGIASFVCEYAPPGKATEVRVTVLRQADSQVTEVWAATYMMGNESTFPDDSICTGTFSGNQVNLTIRGLRAMDTGLYICEVELMYPPPYYLGIGNGTQIYVIDPEPSPDSD
modifications: 35S-labelled methionine
B2: CTLA-4 variant Var 2 (SEQ ID 6), monomeric form with serine at position 121, translated in vitro (receptor)
chain: B1 chain with S43G, T46S, W49C, P62L
modifications: 35S-labelled methionine
B3: CTLA-4 variant Var 1 (SEQ ID 5), monomeric form with serine at position 121, translated in vitro (receptor)
chain: B1 chain with I17T, W49Y, F61S, P62L, R81Q
modifications: 35S-labelled methionine

Legend:
B7-2 on Raji cells = B7-2 on Raji cells (UniProt P42081); experiment: cell-based or functional assay; design: unit not given beside the values
Chain of B7-2 on Raji cells (P42081 24-329 limits assumed): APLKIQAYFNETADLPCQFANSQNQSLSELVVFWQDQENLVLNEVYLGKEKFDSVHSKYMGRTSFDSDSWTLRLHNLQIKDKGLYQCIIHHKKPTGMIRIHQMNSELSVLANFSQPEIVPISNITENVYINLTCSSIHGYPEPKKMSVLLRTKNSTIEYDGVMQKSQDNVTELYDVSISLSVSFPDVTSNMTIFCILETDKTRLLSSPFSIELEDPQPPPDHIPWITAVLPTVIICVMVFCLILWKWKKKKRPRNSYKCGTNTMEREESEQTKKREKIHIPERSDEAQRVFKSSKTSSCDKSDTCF

B7-1 on Raji cells = B7-1 on Raji cells (UniProt P33681); experiment: cell-based or functional assay; design: unit not given beside the values
[1] = biological target: T1, B7-1 coated on the plate of the stability RIA (human, UniProt P33681 35-242); experiment: stability RIA: 35S-labelled in vitro translated CTLA-4 on a plate coated with B7-1, 10 mM DTT against no DTT
T1 construct: also called human B7-1 (RnD Systems, 140-B1)
T1 sequence (looked up): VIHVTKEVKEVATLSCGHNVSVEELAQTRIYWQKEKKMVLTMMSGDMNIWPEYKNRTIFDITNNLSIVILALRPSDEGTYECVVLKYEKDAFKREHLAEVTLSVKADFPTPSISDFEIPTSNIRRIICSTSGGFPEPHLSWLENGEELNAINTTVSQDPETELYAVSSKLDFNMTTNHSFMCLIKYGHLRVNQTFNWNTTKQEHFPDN
Experimental: (§1) CTLA-4 variants were screened for stability using the primary stability RIA (radio immunoassay) as described in Jermutus et al., (2001). In brief for each variant a linear DNA template was amplified, transcribed, the mRNA purified on G25 Sephadex® columns and quantified. For each variant in vitro translations in the presence of ³⁵S-labelled methionine were set up in duplicate at 30° C. for 30 min, one in non-reducing conditions and one in 10 mM DTT (dithiothreitol). The translations were stopped with PBS with 0.050 Tween 20, with DTT at the same concentration as the translations. The translation mixture was incubated on a plate coated with B7-1 for 1 hour at room temperature. Plates were washed three times in PBS with 0.05% Tween 20® and three times in PBS. The remaining radioactivity was eluted with 0.1 M triethylamine and quantified by liquid scintillation counting. A measure of the variants' stability was calculated as the percentage residual binding i.e. binding signal in presence of DTT, divided by binding signal in absence of DTT, multiplied by 100.

[2] = biological target: T1, B7-1 coated on the plate of the …; experiment: stability RIA: 35S-labelled in vitro translated CTLA-4 on a plate coated with B7-1, non-reducing conditions
Experimental: as §1

Row | Molecule | EC50, inhibition of IL-2 production in the Jurkat and Raji dual cell assay (B7-1 and B7-2 both free) (B7-2 on Raji cells) | EC50, inhibition of IL-2 production in the Jurkat and Raji dual cell assay (B7-1 and B7-2 both free) (B7-1 on Raji cells) | % Residual Binding (signal in 10 mM DTT divided by signal without DTT, times 100) [1] [%] | Signal DTT- (RIA signal after non-reducing conditions, signal over background) [2] [signal over background]
1 | CTLA-4 human wild-type (SEQ ID NO: 8), CTLA-4-Fc form (from UniProt P16410 37-161) (Fc fusion; in M (unit assumed)) | 1.27e-08 | 1.27e-08 | – | –
2 | B1 | – | – | 75 | 13.2
3 | B2 | – | – | 11 | 29.8
4 | B3 | – | – | 55 | 2.6
